The text below walks through data of patent US20090118127A1 (Janssen / Centocor, published 2009).

The target in experiment [1] is T1, human tumor necrosis factor alpha (TNFα) (human, UniProt P01375 77-233).
T1 construct: also called human TNFα
Description: ELISA, human TNFα coated on the plate, bound antibody detected with HRP anti-human kappa. As to the method:
Antibodies were assessed for binding to human TNFα using an ELISA format. Briefly, human TNFα was coated into the wells of a 96 well plate and candidate mAbs were incubated at various concentrations (20 to 0.2 ng/ml) and bound antibody was detected with HRP-labeled anti-human kappa light chain IgG (Jackson, ImmunoResearch, West Grove, Pa.).

The target of experiment [2] is T1, human tumor necrosis factor alpha (TNFα). The experiment can be described thus: Biacore (SPR), calculated KD.
Experiment [3] shares this target. The experiment can be described thus: Biacore (SPR), 3 pairs of experiments. On the technique in general: SPR reads the build-up and loss of mass on a sensor chip optically.

T1 sequence (P01375 77-233 limits assumed): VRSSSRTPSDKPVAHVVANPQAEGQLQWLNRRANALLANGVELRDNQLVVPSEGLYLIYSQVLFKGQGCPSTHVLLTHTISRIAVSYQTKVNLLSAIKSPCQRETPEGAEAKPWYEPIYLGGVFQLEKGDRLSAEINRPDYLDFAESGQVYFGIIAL

B1: Structure Based Human Adapted C7 (antibody, V domains shown)
VH: EVQLVESGGGLVQPGGSLRLSCAASGFIFSNHWMNWVRQAPGKGLEWIGEIRSKSINSATHYAESVKGRFIISRDDNKNSLYLEMNSLKTEDTAEYYCARNYYGSTYDYWGQGTLVTVS
VL: EIVLTQSPDFQSVTPKEKVTITCRASQFVGSSIHWYQQKPDQSPKLLIKYASESMSGVPSRFSGSGSGTDFTFTISSLEAEDAATYYCQQSHSWPFTFGPGTKVDIK
What is called EC50 (read off the curve) is the midpoint of the concentration-response curve. High values mean lower potency in that assay, low ones higher potency in that assay. For orientation: Kd means the concentration at which binding is half-saturated. By koff is commonly meant the rate constant with which the complex falls apart. The low end stands for slow dissociation, the high end for fast dissociation. What is called kon is a measure of how fast the partners come together. Read a high kon as fast association. Consider B1, for which the “EC50 (read off the curve)” value in experiment [1] was about 2 ng/mL. Besides, in experiment [2], the dissociation constant (Kd) was 0.07 nM. In experiment [3], the koff was 5.63e-05 s⁻¹ and the kon is 803000 M⁻¹ s⁻¹.
